Biological target: aCD19A (anti-CD19-A192) Nanoworm
Assay: SEC-MALS

stoichiometry N: 186
B1: aCD19A (anti-CD19-A192) Nanoworm (scFv, V domains shown)
VH: QVQLQQSGAELVRPGSSVKISCKASGYAFSSYWMNWVKQRPGQGLEWIGQIWPGDGDTNYNGKFKGKATLTADESSSTAYMQLSSLASEDSAVYFCARRETTTVGRYYYAMDYWGQGTTVTVSS
VL: DIQLTQSPASLAVSLGQRATISCKASQSVDYDGDSYLNWYQQIPGQPPKLLIYDASNLVSGIPPRFSGSGSGTDFTLNIHPVEKVDAATYHCQQSTEDPWTFGGGTKLEIK
